Residue numbers refer to the chain shown, from its start. Names and notes keep the numbering of the source. Each block holds one binder with its values, some of them ahead of it.
Target: T1, TNFR1 (Homo sapiens, UniProt P19438)
T1 chain: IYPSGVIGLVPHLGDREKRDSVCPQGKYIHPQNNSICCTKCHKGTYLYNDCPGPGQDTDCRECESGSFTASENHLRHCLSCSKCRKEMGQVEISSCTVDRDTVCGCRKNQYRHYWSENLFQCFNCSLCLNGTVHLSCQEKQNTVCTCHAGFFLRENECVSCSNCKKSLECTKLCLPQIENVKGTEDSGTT
Test: yeast display SC50

B1: D32C (designed binder)
chain: SMEEEVEKAAKEYEKKKKEAIEKHLEKLKAKCKEAAERFLKELEEAAKEYAKDEAKTMSEEEAKRRAKKYKEKVLLSELSEEEQKEIKEAEEKLVRTILKYVEEAAK
apparent Kd (screen): 3 nM

B3: K11Y (designed binder)
chain: B1 chain with K11Y, C32D
apparent Kd (screen): 0.49 nM

B5: T57Y (designed binder)
chain: B1 chain with C32D, T57Y
apparent Kd (screen): 0.0802 nM

B6: A30P (designed binder)
chain: B1 chain with A30P, C32D
apparent Kd (screen): 11.4 nM

B7: K68A (designed binder)
chain: B1 chain with C32D, K68A
apparent Kd (screen): 1.05 nM

B8: E22L (designed binder)
chain: B1 chain with E22L, C32D
apparent Kd (screen): 0.869 nM

B9: D53Y (designed binder)
chain: B1 chain with C32D, D53Y
apparent Kd (screen): 2.73 nM

B11: L28G (designed binder)
chain: B1 chain with L28G, C32D
apparent Kd (screen): 1.4 nM

B13: L25T (designed binder)
chain: B1 chain with L25T, C32D
apparent Kd (screen): 1.86 nM

B14: V6F (designed binder)
chain: B1 chain with V6F, C32D
apparent Kd (screen): 2.25 nM

B15: E42N (designed binder)
chain: B1 chain with C32D, E42N
apparent Kd (screen): 7.07 nM

B17: K33H (designed binder)
chain: B1 chain with C32D, K33H
apparent Kd (screen): 0.446 nM

B21: K17T (designed binder)
chain: B1 chain with K17T, C32D
apparent Kd (screen): 1.05 nM

B23: M2P (designed binder)
chain: B1 chain with M2P, C32D
apparent Kd (screen): 0.49 nM

B24: A35C (designed binder)
chain: B1 chain with C32D, A35C
apparent Kd (screen): 1.69 nM

B28: S59W (designed binder)
chain: B1 chain with C32D, S59W
apparent Kd (screen): 13.8 nM

B29: A9T (designed binder)
chain: B1 chain with A9T, C32D
apparent Kd (screen): 0.446 nM

B30: I21A (designed binder)
chain: B1 chain with I21A, C32D
apparent Kd (screen): 0.653 nM

B32: E12G (designed binder)
chain: B1 chain with E12G, C32D
apparent Kd (screen): 0.49 nM

B34: E3M (designed binder)
chain: B1 chain with E3M, C32D
apparent Kd (screen): 10.4 nM

B35: L28H (designed binder)
chain: B1 chain with L28H, C32D
apparent Kd (screen): 0.79 nM

B36: A46T (designed binder)
chain: B1 chain with C32D, A46T
apparent Kd (screen): 2.73 nM

B37: M2K (designed binder)
chain: B1 chain with M2K, C32D
apparent Kd (screen): 0.49 nM

B38: K64Y (designed binder)
chain: B1 chain with C32D, K64Y
apparent Kd (screen): 0.446 nM

B39: K18H (designed binder)
chain: B1 chain with K18H, C32D
apparent Kd (screen): 1.27 nM

B41: K52G (designed binder)
chain: B1 chain with C32D, K52G
apparent Kd (screen): 0.869 nM

B42: E19Y (designed binder)
chain: B1 chain with E19Y, C32D
apparent Kd (screen): 1.54 nM

B43: H24Q (designed binder)
chain: B1 chain with H24Q, C32D
apparent Kd (screen): 0.79 nM

Now from value to binder:

apparent Kd (screen): 0.539 nM
B2: E82F (designed binder)
chain: B1 chain with C32D, E82F

apparent Kd (screen): 1.86 nM
B4: A105N (designed binder)
chain: B1 chain with C32D, A105N

apparent Kd (screen): 0.446 nM
B10: E104V (designed binder)
chain: B1 chain with C32D, E104V

apparent Kd (screen): 11.4 nM
B12: Q84S (designed binder)
chain: B1 chain with C32D, Q84S

apparent Kd (screen): 0.653 nM
B16: K93S (designed binder)
chain: B1 chain with C32D, K93S

apparent Kd (screen): 0.718 nM
B18: K93M (designed binder)
chain: B1 chain with C32D, K93M

apparent Kd (screen): 1.86 nM
B19: L79C (designed binder)
chain: B1 chain with C32D, L79C

apparent Kd (screen): 0.446 nM
B20: L94H (designed binder)
chain: B1 chain with C32D, L94H

apparent Kd (screen): 0.446 nM
B22: E104P (designed binder)
chain: B1 chain with C32D, E104P

apparent Kd (screen): 0.405 nM
B25: Y101A (designed binder)
chain: B1 chain with C32D, Y101A

apparent Kd (screen): 0.718 nM
B26: K68R (designed binder)
chain: B1 chain with C32D, K68R

apparent Kd (screen): 3 nM
B27: S77N (designed binder)
chain: B1 chain with C32D, S77N

apparent Kd (screen): 1.4 nM
B31: K100I (designed binder)
chain: B1 chain with C32D, K100I

apparent Kd (screen): 12.5 nM
B33: E92A (designed binder)
chain: B1 chain with C32D, E92A

apparent Kd (screen): 2.73 nM
B40: V102I (designed binder)
chain: B1 chain with C32D, V102I
